According to paper PMC7518097:

Molecular target: Kv7.2 G279S (human)
Assay: co-IP; lysates of transfected cells incubated with protein A magnetic beads pre-coated with guinea pig anti-KCNQ2-C2 antibodies; CaM detected by western blot (mouse anti-calmodulin); CaM band normalized to WT

CaM co-immunoprecipitated, normalized to WT (relative to WT): 0.71
Substance: calmodulin (from UniProt P0DP23 1-149) (natural protein)
